# Laboratory results as given in IntAct's records for PubMed 29039417.
# B1: Protein PTHB1 (Homo sapiens), Q3SYG4 (parent)
# chain: MSLFKARDWWSTILGDKEEFDQGCLCLANVDNSGNGQDKIIVGSFMGYLRIFSPHPAKTGDGAQAEDLLLEVDLRDPVLQVEVGKFVSGTEMLHLAVLHSRKLCVYSVSGTLGNVEHGNQCQMKLMYEHNLQRTACNMTYGSFGGVKGRDLICIQSMDGMLMVFEQESYAFGRFLPGFLLPGPLAYSSRTDSFLTVSSCQQVESYKYQVLAFATDADKRQETEQQKLGSGKRLVVDWTLNIGEQALDICIVSFNQSASSVFVLGERNFFCLKDNGQIRFMKKLDWSPSCFLPYCSVSEGTINTLIGNHNNMLHIYQDVTLKWATQLPHIPVAVRVGCLHDLKGVIVTLSDDGHLQCSYLGTDPSLFQAPNVQSRELNYDELDVEMKELQKIIKDVNKSQGVWPMTEREDDLNVSVVVSPNFDSVSQATDVEVGTDLVPSVTVKVTLQNRVILQKAKLSVYVQPPLELTCDQFTFEFMTPDLTRTVSFSVYLKRSYTPSELEGNAVVSYSRPTDRNPDGIPRVIQCKFRLPLKLICLPGQPSKTASHKITIDTNKSPVSLLSLFPGFASQSDDDQVNVMGFHFLGGARITVLASKTSQRYRIQSEQFEDLWLITNELILRLQEYFEKQGVKDFACSFSGSIPLQEYFELIDHHFELRINGEKLEELLSERAVQFRAIQRRLLARFKDKTPAPLQHLDTLLDGTYKQVIALADAVEENQGNLFQSFTRLKSATHLVILLIALWQKLSADQVAILEAAFLPLQEDTQELGWEETVDAAISHLLKTCLSKSSKEQALNLNSQLNIPKDTSQLKKHITLLCDRLSKGGRLCLSTDAAAPQTMVMPGGCTTIPESDLEERSVEQDSTELFTNHRHLTAETPRPEVSPLQGVSE
# partner: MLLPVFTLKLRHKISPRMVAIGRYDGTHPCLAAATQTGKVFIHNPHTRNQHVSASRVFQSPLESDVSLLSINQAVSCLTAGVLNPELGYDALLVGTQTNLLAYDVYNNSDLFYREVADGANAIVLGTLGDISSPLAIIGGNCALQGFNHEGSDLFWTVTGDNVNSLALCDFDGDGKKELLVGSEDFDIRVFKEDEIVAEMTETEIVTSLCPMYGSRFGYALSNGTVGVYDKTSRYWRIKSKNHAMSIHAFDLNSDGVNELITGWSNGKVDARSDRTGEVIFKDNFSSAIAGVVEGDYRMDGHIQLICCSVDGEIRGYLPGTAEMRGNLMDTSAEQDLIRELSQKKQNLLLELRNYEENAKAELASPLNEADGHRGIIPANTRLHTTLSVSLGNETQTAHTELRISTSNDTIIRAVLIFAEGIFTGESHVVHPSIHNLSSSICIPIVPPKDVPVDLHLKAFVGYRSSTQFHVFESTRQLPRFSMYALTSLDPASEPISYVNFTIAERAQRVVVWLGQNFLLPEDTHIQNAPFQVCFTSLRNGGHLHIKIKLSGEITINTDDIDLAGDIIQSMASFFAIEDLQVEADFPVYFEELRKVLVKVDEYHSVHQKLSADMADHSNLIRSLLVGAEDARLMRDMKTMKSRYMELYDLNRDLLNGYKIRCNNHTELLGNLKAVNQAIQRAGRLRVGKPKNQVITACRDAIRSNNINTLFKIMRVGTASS
# Variants of: B1
# Conditions: with bbs2_human BBS2, Q9BXC9
row,Variant,effect of a mutation on the interaction
1,F580K,with no effect
2,F580A,with no effect
3,F580E,with no effect
4,A592K,with no effect
5,A592E,with no effect
6,D571A,with no effect
7,D571K,with no effect
8,D571E,with no effect
9,F582E,with no effect
10,F582A,with no effect
11,F582K,with no effect
12,P564A,with no effect
13,P564K,with no effect
14,P564E,with no effect
15,S568E,with no effect
16,S568K,with no effect
17,S568A,with no effect
18,G585A,with no effect
19,G585E,with no effect
20,G585R,disrupting interaction strength
21,G585K,with no effect
22,I588E,with no effect
23,I588A,with no effect
24,I588K,with no effect
25,F566K,with no effect
26,F566A,with no effect

row,Variant,effect of a mutation on the interaction
1,F566E,with no effect
2,D572E,with no effect
3,D572K,with no effect
4,D572A,with no effect
5,M578K,disrupting interaction strength
6,M578E,with no effect
7,M578A,with no effect
8,T595I,disrupting interaction strength
9,T595A,with no effect
10,T595S,disrupting interaction strength
11,T595K,with no effect
12,T595E,with no effect
13,G584A,with no effect
14,G584K,with no effect
15,G584E,with no effect
16,Q574A,with no effect
17,Q574L,disrupting interaction strength
18,Q574E,with no effect
19,Q574K,with no effect
20,S593K,with no effect
21,S593E,with no effect
22,S593A,with no effect
23,S570K,with no effect
24,S570E,with no effect
25,S570A,with no effect
26,L583E,with no effect

row,Variant,effect of a mutation on the interaction
1,L583K,with no effect
2,L583A,with no effect
3,K594A,with no effect
4,K594E,with no effect
5,G579A,with no effect
6,G579E,with no effect
7,G579K,with no effect
8,N576E,with no effect
9,N576K,with no effect
10,N576A,with no effect
11,R587K,with no effect
12,R587E,with no effect
13,R587T,disrupting interaction strength
14,R587A,with no effect
15,V577E,with no effect
16,V577K,with no effect
17,V577A,with no effect
18,S596A,with no effect
19,A567K,with no effect
20,A567E,with no effect
21,V590E,with no effect
22,V590A,with no effect
23,V590K,with no effect
24,T589S,disrupting interaction strength
25,T589A,with no effect
26,T589E,with no effect

row,Variant,effect of a mutation on the interaction
1,T589K,with no effect
2,G565A,with no effect
3,G565K,with no effect
4,G565R,disrupting interaction strength
5,G565E,with no effect
6,D573A,with no effect
7,D573K,with no effect
8,D573E,with no effect
9,H581A,with no effect
10,H581E,with no effect
11,H581K,with no effect
12,H581P,disrupting interaction strength
13,H581Y,disrupting interaction strength
14,A586K,with no effect
15,A586E,with no effect
16,V575E,with no effect
17,V575K,with no effect
18,V575A,with no effect
19,L591K,with no effect
20,L591E,with no effect
21,L591A,with no effect
22,Q569E,with no effect
23,Q569A,with no effect
24,Q569K,with no effect

# The remaining lines, values ahead:
row,effect of a mutation on the interaction,Variant
1,with no effect,Q605E
2,with no effect,Q605A
3,with no effect,Q605K
4,with no effect,Q597A
5,disrupting interaction strength,Q597R
6,with no effect,Q597E
7,with no effect,Q597K
8,with no effect,N614E
9,with no effect,N614A
10,with no effect,N614K
11,with no effect,D608K
12,with no effect,D608A
13,with no effect,D608E
14,with no effect,Y599K
15,with no effect,Y599A
16,with no effect,Y599E
17,with no effect,L620E
18,with no effect,L620K
19,with no effect,L620A
20,with no effect,Q602A
21,disrupting interaction strength,Q602L
22,with no effect,Q602E
23,with no effect,Q602K
24,with no effect,I617A
25,with no effect,I617K
26,with no effect,I617E

row,effect of a mutation on the interaction,Variant
1,with no effect,I612A
2,with no effect,I612K
3,with no effect,I612E
4,with no effect,R598A
5,disrupting interaction strength,R598L
6,with no effect,R598K
7,with no effect,R598E
8,with no effect,F606E
9,with no effect,F606K
10,with no effect,F606A
11,with no effect,L611A
12,with no effect,L611K
13,with no effect,L611E
14,with no effect,L618K
15,with no effect,L618E
16,with no effect,L618A
17,with no effect,T613E
18,with no effect,T613K
19,disrupting interaction strength,T613I
20,with no effect,T613A
21,with no effect,W610A
22,with no effect,W610E
23,with no effect,W610K
24,with no effect,R600A
25,disrupting interaction strength,R600G
26,with no effect,R600E

row,effect of a mutation on the interaction,Variant
1,with no effect,R600K
2,with no effect,E604K
3,with no effect,E604A
4,with no effect,L616E
5,with no effect,L616A
6,with no effect,L616K
7,with no effect,S596E
8,with no effect,S596K
9,with no effect,L609A
10,with no effect,L609K
11,with no effect,L609E
12,with no effect,Q621A
13,with no effect,Q621E
14,with no effect,E607A
15,with no effect,E607K
16,with no effect,R619A
17,with no effect,R619K
18,with no effect,R619E
19,with no effect,S603K
20,with no effect,S603E
21,with no effect,S603A
22,with no effect,E615K
23,with no effect,E615A
24,with no effect,I601K
25,with no effect,I601E
26,with no effect,I601A
